Assay results from patent US7442773B2, “Universal peptide-binding scaffolds and protein chips” (The Board of Trustees of The University of Illinois, priority 2004, dated 2008).

Molecular target: biotinylated HA306-318 peptide
Format: binding, influenza virus
Conditions: 20 hours at 37° C., flow cytometry, estimated, read-out: apparent dissociation constant KD of the biotinylated HA306-318 peptide complex

B1: DWP-7: evolved single-chain HLA-DR1 variant (α-linker-β) from library lib-αβ, SEQ ID NOs:35 and 36 (protein)
chain: RKEEHVITQAEFYLNPDQSGEFMFDFDGDEIFHVDMAKKETVWRLEEFGRFASFEAQGALANIAVDKANLEIMTKRSNYTPITNVPPEVTVLTNSPVELREPNVLICYIDKFTPPVVNVTWLRNGKPVTTGVSETVFLPREDHLFRKFHYLPFLPSTEDVYDCRVEHWGLDEPLLKHWEFNAPSPLPETTENLGGGGSGGGRSGGGGSGDTRPRFLWQHKFECHFFNGTERVRLLERCIYNQEESVRFDSDVGEYRAVTELGRPAAEYWNSQKDLLEQRRAAADTYCRHNYGVGESFTVRRRVEPKVTVYPSKTQPLQHHNLLVCSVSGFYPGSIEVRWFRNGQEEKAGVVSTGLIQNGDWTFQTLVMLETVPRSGEVYTCQVEHPSVTSPLTVEWRARSESAQSKLESRGPFEGKPIPNPLLGLDSTRTGHHHHHH
modifications: Sequence of mutant DWP-7
Kd: 5 µM
